From patent US20030180296A1 (Human Genome Sciences, published 2003)
One block for each binder: values may come before it.

How the values were obtained:
TR7-Fc fusion protein [1] = target: T1, TR7-Fc fusion protein (human, UniProt O14763 52-184); assay: competition ELISA, inhibition of biotinylated TRAIL binding to captured TR7-Fc; unlabelled TRAIL as competitor
T1 construct: also called TR7-Fc receptor; TRAILR2; not shown: Fc region
Protocol: (§1) Goat anti-human Fc is diluted to 0.1 micrograms/ml in coating buffer. An Immulon 4 microplate is coated with 100 microliters per well of the Goat anti-human Fc solution and incubated overnight at 4° C. The coating solution is decanted from the plate, and blocking solution is dispensed at 200 microliters per well. The plate is incubated at room temperature for 1 hour. After the 1 hour incubation period, the blocking solution is decanted from the plate and 1 microgram/mL of TR7-Fc is dispensed at 100 microliters/well and incubated for 2 hours at room temperature. After the incubation, the plate is washed five times manually using a Wheaton manifold.
(§2) Antibodies corresponding to scFvs of the present invention are (previously) prepared in a low binding dilution plate using diluent. The antibodies are prepared in duplicate and are diluted from the stock concentration with 2.5 fold dilutions for the 7 subsequent wells. If a purified form of the antibody is available, the starting concentration is 5 micrograms/mL. The positive control (TR7-Fc) is diluted from 5 micrograms/mL. 100 microliters is transferred into the ELISA plate and pre-incubated for 30 minutes at room temperature. […]
(§3) After the one-hour incubation, the plate is decanted and washed with PBST five times and blotted. […] The plate is immediately read at 450 nm using the spectrometer from Molecular Devices.

TR7-Fc fusion protein [2] = target: T1, TR7-Fc fusion protein; assay: SPR (BIAcore 2000), TR7-Fc amine-coupled on CM5 chip, 1:1 Langmuir model, mean of three experiments; second lot
Protocol: (§4) TR7-Fc and TR2-Fc were immobilized on individual flow cells of a BIAcore CM5 sensor chip (BIAcore, Cat # BR-1000-14). Amine coupling (BIAcore, Cat # BR-1000-50) was used to covalently bind each receptor to the dextran matrix on the sensor chip. The optimal pH for this coupling was analyzed using preconcentration experiments ranging from pH 4-7 and was determined to be pH 4.0 based on the slope of the binding. The actual coupling was performed using the manual injection mode. A target level of 200 relative units (RU) was set as the goal for both flow cells. A response of 1000 RU correlates to a change in surface concentration of about 1 ng/mm² for proteins. The molecular weight of the TR7 and TR2 fusion proteins was nearly identical. The concentration of both receptors for immobilization was 5 μg/ml in 10 mM acetate, pH 4.0 (BIAcore, Cat # BR-1003-49). The entire experiment was performed at a flow rate of 5 μL/min. Contact time for the N-ethyl-N′-(3-dimethylaminoprolpyl)carbodiimide hydrochloride/Ethanolamine hydrochloride-NaOH, pH 8.5 (EDC/NHS) injection was 3 minutes. The ethanolamine was injected for 3 minutes.
(§5) Analysis of CM005G08 kinetics was performed using the BIAcore 2000 instrument with the 2000 control software, version 3.1.1. […] The off rate of CM005G08 was determined by washing the complex in the presence of HBS-EP buffer for 10 minutes. […]

TR7-Fc fusion protein [3] = target: T1, TR7-Fc fusion protein; assay: competition ELISA, inhibition of biotinylated TRAIL binding to captured TR7-Fc; second of two lots
Protocol: as §1, §2, §3

TR7-Fc fusion protein [4] = target: T1, TR7-Fc fusion protein; assay: SPR (BIAcore 2000), TR7-Fc amine-coupled on CM5 chip, 1:1 Langmuir model, mean of three experiments; first lot
Protocol: as §4, §5

TR7-Fc fusion protein [5] = target: T1, TR7-Fc fusion protein; assay: competition ELISA, inhibition of biotinylated TRAIL binding to captured TR7-Fc; first of two lots
Protocol: as §1, §2, §3

IC50 (TR7-Fc fusion protein [1]): 1.77 nM
B1: TRAIL (ligand)
chain: TSEETISTVQEKQQNISPLVRERGPQRVAAHITGTRGRSNTLSSPNSKNEKALGRKINSWESSRSGHSFLSNLHLRNGELVIHEKGFYYIYSQTYFRFQEEIKENTKNDKQMVQYIYKYTSYPDPILLMKSARNSCWSKDAEYGLYSIYQGGIFELKENDRIFVSVTNEHLIDMDHEASFFGAFLVG
notes: also called soluble TRAIL ligand; AIM-I

Kd (TR7-Fc fusion protein [2]): 0.33 nM
koff (TR7-Fc fusion protein [2]): 0.00268 s⁻¹
IC50 (TR7-Fc fusion protein [3]): 6.89 nM
Kd (TR7-Fc fusion protein [4]): 0.25 nM
koff (TR7-Fc fusion protein [4]): 0.00266 s⁻¹
IC50 (TR7-Fc fusion protein [5]): 5.3 nM
B2: whole IgG1 antibody comprising the VH and VL domains of the CM005G08 scFv (antibody, V domains shown)
VH: EVQLVQSGGGVERPGGSLRLSCAASGFTFDDYGMSWVRQAPGKGLEWVSGINWNGGSTGYADSVKGRVTISRDNAKNSLYLQMNSLRAEDTAVYYCAKILGAGRGWYFDLWGKGTTVTVSS
VL: SSELTQDPAVSVALGQTVRITCQGDSLRSYYASWYQQKPGQAPVLVIYGKNNRPSGIPDRFSGSSSGNTASLTITGAQAEDEADYYCNSRDSSGNHVVFGGGTKLTVLG
notes: 3.75 ug/mL = 25 nM implies a whole IgG; also called CM005G08 (IgG1 format); anti-TR7 antibody
